One block for each molecule: values may come before it.
What was measured:
HLA-DQ6 = HLA-DQ6 binding of MBP peptides; set-up: species or system human
[1] = tested on: double-transgenic (DTg; human HLA-DR15/MBP-specific T-cell receptor) humanized mice; experiment: SCH-induced EAE in double-transgenic humanized mice, clinical score; format: in vivo, mouse; conditions: once weekly from Day 0; ATX-MS-1467 100 μg/dose, MBP82-98 12 μg or 100 μg/dose
Procedure: In double-transgenic (DTg; human HLA-DR15/MBP-specific T-cell receptor) ‘humanized’ mice, EAE was induced using an emulsification of spinal cord homogenate (SCH) and CFA on Day 0. Mice also received a pertussis toxin injection on Days 0 and 2.
Throughout the study, neurological deficits were measured using a standardized clinical score scale: 0=no clinical signs, 1=limp tail, 2=impaired righting reflex, 3=partial hind limb paralysis, 4=complete hind limb paralysis, 5=moribund/death.
If animals reached a score of 4 they were euthanized to reach a humane endpoint.
[…] were treated prophylactically either with subcutaneous (sc) phosphate-buffered saline (PBS) vehicle or ATX-MS-1467 (n=10 per treatment group) starting 3 weeks before EAE induction. […]
ATX-MS-1467 was tested head-to-head with MBP82-98 and GA. […] For both compounds, the human equivalent dose (HED) was calculated based on body surface area: MBP82-98=12 μg/dose and GA=75 μg (3.75 mg/kg)/dose.
Statistical analyses for significant differences on clinical scores by treatment over time and cumulative clinical scores (area under the curve) were performed using Kruskal-Wallis with Dunn's post hoc analysis of comparisons. Disease onset was analyzed by Kaplan-Meier curve and significance was determined using the log-rank (Mantel-Cox) test. Cellular brain infiltrates were analyzed by Student's t-test. […]

HLA-DR2 = HLA-DR2 (Homo sapiens, UniProt P01903+P01911); experiment: HLA-DR2 binding of MBP peptides
Chain of HLA-DR2 (P01903 26-254): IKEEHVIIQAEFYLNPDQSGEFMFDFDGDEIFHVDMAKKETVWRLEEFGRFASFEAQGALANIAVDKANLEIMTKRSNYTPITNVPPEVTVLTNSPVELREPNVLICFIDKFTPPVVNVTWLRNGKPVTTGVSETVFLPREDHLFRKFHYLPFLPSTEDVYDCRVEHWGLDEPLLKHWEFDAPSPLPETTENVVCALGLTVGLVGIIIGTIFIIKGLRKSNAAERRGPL
Chain of HLA-DR2 (P01911 30-266): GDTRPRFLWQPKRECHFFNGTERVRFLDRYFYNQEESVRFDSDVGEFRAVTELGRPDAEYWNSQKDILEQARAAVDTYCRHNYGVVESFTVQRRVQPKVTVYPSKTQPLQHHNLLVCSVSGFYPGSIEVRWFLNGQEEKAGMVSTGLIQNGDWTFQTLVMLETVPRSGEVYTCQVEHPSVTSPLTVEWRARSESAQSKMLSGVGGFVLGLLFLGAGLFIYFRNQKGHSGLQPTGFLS

DR2/Ob1Het/Het mice = experiment: Serum cytokine levels after s.c. treatment/challenge (Milliplex); format: in vivo, mouse
Procedure: Double transgenic heterozygous mice, referred to here as DR2/Ob1Het/Het, were used for these studies. These mice express human leukocyte antigen (HLA) isotypes DRA*0101 and DRB1*1501 under the mouse major histocompatibility […] promoter and the MBP84-102-specific TCR (Ob.1A12) expressed under mouse TCRα and β promoter/enhancer elements.
DR2/Ob1Het/Het mice were treated and/challenged by a single or multiple subcutaneous (s.c.) injections of 100 μg of ATX-MS-1467 or 25 μg of a HLA binding protein (HLAbp) unrelated to EAE and/or 30-1000 μg of myelin basic protein (MBP, Sigma, M1891). Treatment paradigms varied between studies and groups (see specifics in each study). Chronic treatment with ATX-MS-1467 or with HLAbp followed a 3× weekly regimen.
Cytokine levels were quantified in serum of DR2/Ob1Het/Het mice at different time points using a Milliplex MAP mouse Cytokine/Chemokine magnetic kit (MCYTOMAG-70-PMX).

- HLA-DQ6 binding (HLA-DQ6): HLA-DQ6 binding
Molecule: H-Ala-Ser-Asp-Tyr-Lys-Ser-Ala-His-Lys-Gly-Phe-Lys-Gly-Val-Asp-NH2 (H-ASDYKSAHKGFKGVD-NH2) [MBP 131-145]

- HLA-DR2 binding (HLA-DR2): HLA-DR2 binding
Molecule: H-Gly-Phe-Lys-Gly-Val-Asp-Ala-Gln-Gly-Thr-Leu-Ser-Lys-Ile-Phe-NH2 (H-GFKGVDAQGTLSKIF-NH2) [MBP 140-154]

More lines, now with the values behind:

Molecule: H-Pro-Arg-His-Arg-Asp-Thr-Gly-Ile-Leu-Asp-Ser-Ile-Gly-Arg-Phe-NH2 (H-PRHRDTGILDSIGRF-NH2) [MBP 30-44]
- HLA-DQ6 binding (HLA-DQ6): HLA-DQ6 binding

Molecule: MBP82-98: 17-amino acid synthetic peptide identical to MBP (dirucotide)
- disease severity vs vehicle [1]: did not show significant effects

Molecule: H-Glu-Asn-Pro-Val-Val-His-Phe-Phe-Lys-Asn-Ile-Val-Thr-Pro-Arg-Thr-Pro-NH2 (H-ENPVVHFFKNIVTPRTP-NH2) [MBP 83-99]
- HLA-DR2 binding (HLA-DR2): HLA-DR2 binding

B1: MBP: myelin basic protein (MBP, Sigma, M1891), full length (protein, UniProt P02686 1-304, looked up)
Myelin basic protein: MGNHAGKRELNAEKASTNSETNRGESEKKRNLGELSRTTSEDNEVFGEADANQNNGTSSQDTAVTDSKRTADPKNAWQDAHPADPGSRPHLIRLFSRDAPGREDNTFKDRPSESDELQTIQEDSAATSESLDVMASQKRPSQRHGSKYLATASTMDHARHGFLPRHRDTGILDSIGRFFGGDRGAPKRGSGKDSHHPARTAHYGSLPQKSHGRTQDENPVVHFFKNIVTPRTPPPSQGKGRGLSLSRFSWGAEGQRPGFGYGGRASDYKSAHKGFKGVDAQGTLSKIFKLGGRDSRSGSPMARR
- dose dependence of serum cytokine secretion (DR2/Ob1Het/Het mice; 2 h after s.c. injection, 30-1000 μg): dose-dependent secretion of cytokines
- cytokine secretion in the blood after acute treatment (DR2/Ob1Het/Het mice; single s.c. injection, FIG. 4 (MBP), FIG. 5 (ATX-MS-1467 100 μg/mouse)): induces the secretion of both pro and anti-inflammatory cytokines

From patent publication US20210093695A1, “Method” (APITOPE TECHNOLOGY (BRISTOL) LIMITED, priority 2017, published 2021)
